Laboratory results: paper PMC8892516, “Intragenic suppressors unravel the role of the SCREAM ACT-like domain for bHLH partner selectivity in stomatal development” (Proceedings of the National Academy of Sciences of the …, 2022)

Legend:
Conditions in all cases: both partners purified
[1] = molecular target: T1, GST-fused SCRM (1-494) (Arabidopsis thaliana, UniProt Q9LSE2 1-494); assay: BLI; as a1, samples incubated 30 min with a 1:4 molar ratio of the synthetic E-box repeat fragment; analyte 200-3.125 nM or 1000-25 nM
T1 construct: SCREAM (SCRM, also known as ICE1), Arabidopsis thaliana, At3G26744, residues 1-494; pGEX-4T-1 with thrombin site; GST kept because the protein was loaded on anti-GST probes for BLI; also called SCREAM; ICE1; source: E. coli BL21, purified (glutathione agarose resin); not shown: GST, N-terminal, kept
T1 sequence (looked up): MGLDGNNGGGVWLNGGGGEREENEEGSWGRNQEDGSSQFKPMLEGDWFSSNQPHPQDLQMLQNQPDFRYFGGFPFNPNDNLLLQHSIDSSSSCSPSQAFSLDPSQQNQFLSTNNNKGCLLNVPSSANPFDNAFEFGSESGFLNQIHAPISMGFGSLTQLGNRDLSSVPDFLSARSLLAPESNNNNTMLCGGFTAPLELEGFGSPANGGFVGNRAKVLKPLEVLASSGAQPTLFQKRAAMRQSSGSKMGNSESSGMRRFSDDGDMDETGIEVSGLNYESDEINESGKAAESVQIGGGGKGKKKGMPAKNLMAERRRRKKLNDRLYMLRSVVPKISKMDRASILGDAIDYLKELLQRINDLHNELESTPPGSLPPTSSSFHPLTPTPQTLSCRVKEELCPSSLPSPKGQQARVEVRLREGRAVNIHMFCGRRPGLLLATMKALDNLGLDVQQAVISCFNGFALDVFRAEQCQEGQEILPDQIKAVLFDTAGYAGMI

[2] = molecular target: T2, GST-fused SCRMΔC (1-404) (Arabidopsis thaliana, UniProt Q9LSE2 1-404); assay: as above
T2 construct: SCREAM (SCRM, ICE1), Arabidopsis thaliana, At3G26744, residues 1-404 (lacks the C-terminal ACTL domain); pGEX-4T-1; GST kept because the protein was loaded on anti-GST probes for BLI; also called SCRM1ΔC; source: E. coli BL21, purified (glutathione agarose resin); not shown: GST, N-terminal, kept
T2 sequence (looked up): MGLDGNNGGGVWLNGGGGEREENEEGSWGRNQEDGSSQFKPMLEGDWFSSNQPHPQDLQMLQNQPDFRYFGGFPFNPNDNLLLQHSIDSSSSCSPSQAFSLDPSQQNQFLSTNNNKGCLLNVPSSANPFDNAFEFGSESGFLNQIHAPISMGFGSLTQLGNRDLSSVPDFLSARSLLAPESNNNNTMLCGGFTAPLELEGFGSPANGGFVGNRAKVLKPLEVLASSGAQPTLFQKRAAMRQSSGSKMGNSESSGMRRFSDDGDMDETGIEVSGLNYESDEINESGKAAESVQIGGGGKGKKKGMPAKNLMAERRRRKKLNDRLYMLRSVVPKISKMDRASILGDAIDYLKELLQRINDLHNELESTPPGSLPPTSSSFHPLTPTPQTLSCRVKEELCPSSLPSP

[3] = molecular target: T1, GST-fused SCRM (1-494); assay: BLI; as a1, samples incubated 30 min with a 1:4 molar ratio of the TMM promoter fragment containing the E-box; analyte 200-3.125 nM or 1000-25 nM
[4] = molecular target: T2, GST-fused SCRMΔC (1-404); assay: as above
[5] = molecular target: T1, GST-fused SCRM (1-494); assay: BLI; as a1, samples incubated 30 min with a 1:4 molar ratio of the TMM promoter fragment containing a mutant E-box (control); analyte 200-3.125 nM or 1000-25 nM
[6] = molecular target: T2, GST-fused SCRMΔC (1-404); assay: as above
[7] = molecular target: T3, SCRMΔC (1-404), GST removed (Arabidopsis thaliana, UniProt Q9LSE2 1-404); assay: ITC; Malvern PEAQ-ITC; 40 µM SCRM/SCRMΔC injected into 4 µM SPCH/MUTE/FAMA; PBS, pH 7.2 (Table S1; methods: pH 7.4); 25 °C; single binding site model; means of two experiments
T3 construct: SCREAM (SCRM, ICE1), Arabidopsis thaliana, At3G26744, residues 1-404 (lacks the C-terminal ACTL domain); Used for ITC; the methods tell thrombin cleavage of the GST-fused proteins in general, not for ITC by name; also called SCRM1ΔC; source: E. coli BL21, purified (glutathione resin, thrombin, Superdex-200); not shown: GST, N-terminal, cleaved
T3 sequence (looked up): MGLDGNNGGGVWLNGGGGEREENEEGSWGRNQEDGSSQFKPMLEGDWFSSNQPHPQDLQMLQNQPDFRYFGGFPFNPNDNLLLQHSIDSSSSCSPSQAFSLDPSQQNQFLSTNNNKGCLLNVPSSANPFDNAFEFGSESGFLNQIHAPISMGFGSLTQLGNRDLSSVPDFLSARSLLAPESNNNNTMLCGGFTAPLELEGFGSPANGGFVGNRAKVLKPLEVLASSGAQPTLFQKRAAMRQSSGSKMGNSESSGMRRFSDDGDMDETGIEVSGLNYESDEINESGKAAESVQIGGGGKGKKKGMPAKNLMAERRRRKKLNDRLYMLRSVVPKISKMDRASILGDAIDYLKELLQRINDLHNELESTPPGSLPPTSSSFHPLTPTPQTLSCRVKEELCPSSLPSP

[8] = molecular target: T1, GST-fused SCRM (1-494); assay: BLI; Octet Red96; anti-GST probes loaded with 500 nM GST-SCRM or GST-SCRMΔC; SPCH/MUTE/FAMA as analyte at 200-3.12 nM; 30 °C; 1x PBS, 0.02% Tween 20; no DNA; 1:1 model for kon, koff and KD, steady-state analysis for KD (SS)
[9] = molecular target: T2, GST-fused SCRMΔC (1-404); assay: as above

B1: FAMA (ΔNFAMA) (domain or fragment)
chain: ESQRMTHIAVERNRRKQMNEHLRVLRSLMPGSYVQRGDQASIIGGAIEFVRELEQLLQCLESQKRRRILGETGRDMTTTTTSSSSPITTVANQAQPLIITGNVTELEGGGGLREETAENKSCLADVEVKLLGFDAMIKILSRRRPGQLIKTIAALEDLHLSILHTNITTMEQTVLYSFNVKITSETRFTAEDIASSIQQIFSFIHANTNISGSSNLGNIVFT
modifications: Limits not printed. Start set by analogy with the printed ΔNSPCH 98-364 (one residue before the annotated bHLH). Runs to the native C-terminus. Tag or fusion carrier omitted.
Binder B1 has a Kd [1] of 8.5 ± 0.7 nM, a koff [1] of 0.000367 s⁻¹ and a kon [1] of 43200 M⁻¹ s⁻¹. It also gave a Kd [2] of 59.1 ± 1.3 nM, a koff [2] of 0.00023 s⁻¹ and a kon [2] of 3910 M⁻¹ s⁻¹. It also gave a Kd [3] of 9.2 ± 0.3 nM, a koff [3] of 0.000395 s⁻¹ and a kon [3] of 43200 M⁻¹ s⁻¹. For the same binder, the Kd [4] was 68.3 ± 1.4 nM, the koff [4] was 0.000263 s⁻¹ and the kon [4] was 3910 M⁻¹ s⁻¹. For the same binder, the Kd [5] was 15.5 ± 0.6 nM, the koff [5] was 0.000282 s⁻¹ and the kon [5] was 18200 M⁻¹ s⁻¹. It also gave a Kd [6] of 85 ± 1.8 nM, a koff [6] of 0.000221 s⁻¹ and a kon [6] of 2610 M⁻¹ s⁻¹. For the same binder, the Kd [7] was 68.1 ± 5.2 nM, the Kd [8] was 7.2 ± 0.5 nM and the koff [8] was 0.000159 s⁻¹. The kon [8] was 22200 M⁻¹ s⁻¹, the Kd [9] was 55.1 ± 1.3 nM and the koff [9] was 0.00016 s⁻¹. It also gave a kon [9] of 2910 M⁻¹ s⁻¹.

B2: SPCH (ΔNSPCH, 98-364) (domain or fragment, Arabidopsis thaliana, UniProt Q700C7 98-364, looked up)
chain: GQQKMSHVTVERNRRKQMNEHLTVLRSLMPCFYVKRGDQASIIGGVVEYISELQQVLQSLEAKKQRKTYAEVLSPRVVPSPRPSPPVLSPRKPPLSPRINHHQIHHHLLLPPISPRTPQPTSPYRAIPPQLPLIPQPPLRSYSSLASCSSLGDPPPYSPASSSSSPSVSSNHESSVINELVANSKSALADVEVKFSGANVLLKTVSHKIPGQVMKIIAALEDLALEILQVNINTVDETMLNSFTIKIGIECQLSAEELAQQIQQTFC
notes: the only recombinant SPCH with bHLH domain that the methods list is ΔNSPCH (98-364); source: E. coli BL21, purified (glutathione resin, thrombin, Superdex-200); not shown: GST, N-terminal, cleaved
For B2, the Kd [1] was 7.2 ± 0.4 nM, the koff [1] was 0.000354 s⁻¹ and the kon [1] was 49200 M⁻¹ s⁻¹. The Kd [2] was 38.1 ± 1.9 nM, the koff [2] was 0.000184 s⁻¹ and the kon [2] was 4850 M⁻¹ s⁻¹. For the same binder, the Kd [3] was 3.9 ± 0.3 nM, the koff [3] was 0.000153 s⁻¹ and the kon [3] was 39200 M⁻¹ s⁻¹. For the same binder, the Kd [4] was 49 ± 1.3 nM, the koff [4] was 0.000208 s⁻¹ and the kon [4] was 4250 M⁻¹ s⁻¹. For the same binder, the Kd [5] was 6.8 ± 0.5 nM, the koff [5] was 0.000144 s⁻¹ and the kon [5] was 21200 M⁻¹ s⁻¹. The Kd [6] was 78.2 ± 1.2 nM, the koff [6] was 0.000183 s⁻¹ and the kon [6] was 2350 M⁻¹ s⁻¹. For the same binder, the Kd [7] was 61.1 ± 4.2 nM, the Kd [8] was 5.8 ± 0.5 nM and the koff [8] was 0.000111 s⁻¹. It also gave a kon [8] of 19200 M⁻¹ s⁻¹, a Kd [9] of 59.1 ± 1.3 nM and a koff [9] of 0.00012 s⁻¹. The kon [9] was 2050 M⁻¹ s⁻¹.
